# Test results published in patent US20240116985A1 (published 2024).
# Starred links: 1 amine or outer side, 2 acyl side, 3 side chain; linkers in the order of their positions; H or OH if unused. Positions of bridges follow the written chain, without caps; N, C: chain ends. Non-standard residues stand in square brackets, D forms with d. Primed or numbered codes have the meaning given here. PyrS(3) = (S)-1-((allyloxy)carbonyl)-3-aminopyrrolidine-3-carboxylic acid, stapling residue, C=CCOC(=O)N1CC[C@@](N[*:1])(C(=O)[*:2])C1; PyrS″ = (S)-1-((allyloxy)carbonyl)-3-aminopyrrolidine-3-carboxylic acid (stapling residue), C=CCOC(=O)N1CC[C@@](N[*:1])(C(=O)[*:2])C1; PyrS = (S)-1-((allyloxy)carbonyl)-3-aminopyrrolidine-3-carboxylic acid, C=CCOC(=O)N1CC[C@@](N[*:1])(C(=O)[*:2])C1; Phe(3-CONH2) = NC(=O)c1cccc(C[C@H](N)C(=O)O)c1; Phe(4-CONH2) = NC(=O)c1ccc(C[C@H](N)C(=O)O)cc1; Phe(4-COOH) = N[C@@H](Cc1ccc(C(=O)O)cc1)C(=O)O; Phe(2-CONH2) = NC(=O)c1ccccc1C[C@H](N)C(=O)O; Phe(3-OMe) = COc1cccc(C[C@H](N)C(=O)O)c1; 1Nal = N[C@@H](Cc1cccc2ccccc12)C(=O)O; 2Nal = N[C@@H](Cc1ccc2ccccc2c1)C(=O)O; Ala(cPent) = N[C@@H](CC1CCCC1)C(=O)O; hPhe = N[C@@H](CCc1ccccc1)C(=O)O; 2Pal = N[C@@H](Cc1ccccn1)C(=O)O; 3Pal = N[C@@H](Cc1cccnc1)C(=O)O; R8 = C=CCCCCCC[C@@](C)(N)C(=O)O
# T1: full-length beta-Catenin (Uniprot ID P35222) (Homo sapiens (Human), UniProt P35222 2-781)
# T1 construct: Used full-length in both the FP and the AlphaScreen assay; also called B-Catenin; bCat
# T1 sequence: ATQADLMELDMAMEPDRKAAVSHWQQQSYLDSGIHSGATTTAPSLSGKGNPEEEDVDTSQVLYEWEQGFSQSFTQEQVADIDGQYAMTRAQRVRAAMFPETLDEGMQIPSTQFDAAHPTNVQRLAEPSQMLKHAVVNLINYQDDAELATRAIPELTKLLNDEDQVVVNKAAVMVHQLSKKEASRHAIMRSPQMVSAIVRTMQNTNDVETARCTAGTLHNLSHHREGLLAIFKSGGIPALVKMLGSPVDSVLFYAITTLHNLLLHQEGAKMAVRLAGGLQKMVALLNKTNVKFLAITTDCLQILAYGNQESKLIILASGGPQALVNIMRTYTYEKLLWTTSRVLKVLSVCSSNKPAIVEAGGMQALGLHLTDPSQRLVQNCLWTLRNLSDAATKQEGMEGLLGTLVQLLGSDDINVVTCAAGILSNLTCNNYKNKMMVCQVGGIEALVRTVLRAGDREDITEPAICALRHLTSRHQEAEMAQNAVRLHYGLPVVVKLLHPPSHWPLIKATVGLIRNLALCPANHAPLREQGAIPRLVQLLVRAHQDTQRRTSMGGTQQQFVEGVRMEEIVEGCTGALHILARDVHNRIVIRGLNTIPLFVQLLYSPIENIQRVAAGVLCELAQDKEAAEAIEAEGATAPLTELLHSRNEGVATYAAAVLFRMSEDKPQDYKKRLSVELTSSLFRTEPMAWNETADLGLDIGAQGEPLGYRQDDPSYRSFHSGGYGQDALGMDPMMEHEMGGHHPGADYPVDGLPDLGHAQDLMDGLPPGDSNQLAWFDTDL
# T2: full-length beta-Catenin (Uniprot ID P35222) (Homo sapiens (Human), UniProt P35222 2-781)
# T2 construct: also called B-Catenin; bCat
# T2 sequence: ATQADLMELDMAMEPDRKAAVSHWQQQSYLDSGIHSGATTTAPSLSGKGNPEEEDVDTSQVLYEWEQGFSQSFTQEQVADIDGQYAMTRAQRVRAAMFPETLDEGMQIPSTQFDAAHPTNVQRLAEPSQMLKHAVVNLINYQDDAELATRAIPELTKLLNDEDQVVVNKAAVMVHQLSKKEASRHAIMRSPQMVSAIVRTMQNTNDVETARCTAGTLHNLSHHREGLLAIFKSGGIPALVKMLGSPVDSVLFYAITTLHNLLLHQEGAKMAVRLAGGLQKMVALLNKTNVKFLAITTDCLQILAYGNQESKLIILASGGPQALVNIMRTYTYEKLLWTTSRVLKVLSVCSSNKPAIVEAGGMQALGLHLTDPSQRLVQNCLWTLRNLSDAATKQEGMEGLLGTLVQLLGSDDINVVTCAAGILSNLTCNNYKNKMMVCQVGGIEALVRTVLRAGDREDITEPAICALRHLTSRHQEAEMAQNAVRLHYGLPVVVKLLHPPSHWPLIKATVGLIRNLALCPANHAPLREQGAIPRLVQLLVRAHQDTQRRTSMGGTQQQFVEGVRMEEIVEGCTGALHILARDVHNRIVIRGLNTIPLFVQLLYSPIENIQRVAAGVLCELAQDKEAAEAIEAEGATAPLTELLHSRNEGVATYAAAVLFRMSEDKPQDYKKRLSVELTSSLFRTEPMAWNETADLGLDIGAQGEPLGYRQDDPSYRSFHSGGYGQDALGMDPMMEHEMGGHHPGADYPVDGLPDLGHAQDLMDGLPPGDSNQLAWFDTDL
# Experiments:
# [1] = target: T1, full-length beta-Catenin (Uniprot ID …); assay: AlphaScreen competition; full-length beta-catenin, biotin-TCF4(10-53) probe
# Description: (§1) Equal volume of the titrated peptide was added to the plate and incubated for 15 minutes at 20° C. Then 4 uL of donor and 4 uL acceptor beads at 10 ug/mL were added to the plate, for a 16 uL reaction pool and protected from light for 60 minutes at 20° C. prior to read. Reads were performed on a CLARIOstar plate reader (BMG Labtech) in duplicate, and data were fitted to a 1:1 binding model with hill slope using an in-house script. All provided concentrations are final concentrations.
# [2] = target: T2, full-length beta-Catenin (Uniprot ID …); assay: Alphascreen competition; biotin-TCF4(10-53) probe with full-length beta-catenin
# Description: as §1
Binder,EC50 [1],EC50 [2]
"Ac-FDA[R8]DDAAFV[PyrS″][Phe(4-CONH2)]WQ-NH2 (staple 4-11; not fully specified; printed as Ac-Phe-Asp-Ala-R8-Asp-Asp-Ala-Ala-Phe-Val-PyrS-4CBMF-Trp-Gln-NH2, Stapled peptide; also called Ac-Phe-Asp-Ala-R8-Asp-Asp-Ala-Ala-Phe-Val-PyrS-4CBMF-Trp-Gln-NH2) [I-89]",5.64 µM,–
"Ac-FDA[R8]DDAAFV[PyrS″][Phe(3-OMe)]WQ-NH2 (staple 4-11; not fully specified; printed as Ac-Phe-Asp-Ala-R8-Asp-Asp-Ala-Ala-Phe-Val-PyrS-3OMeF-Trp-Gln-NH2, Stapled peptide composition) [I-102]",–,≥ 10 µM
"Ac-FDA[R8]D[1Nal]AAFV[PyrS″]FWQ-NH2 (staple 4-11, Stapled peptide composition) [I-114]",–,4.74 µM
"Ac-FDA[R8]DDAAFV[PyrS″][Phe(4-CONH2)]WQ-NH2 (staple 4-11, Stapled peptide; also called Ac-Phe-Asp-Ala-R8-Asp-Asp-Ala-Ala-Phe-Val-PyrS-4CBMF-Trp-Gln-NH2) [I-90]",≥ 10 µM,–
"Ac-FDA[R8]DDAA[Ala(cPent)]V[PyrS]FWQ-NH2 (staple 4-11, Stapled peptide composition; same description as I-95, separate later-eluting HPLC peak (staple isomer)) [I-96]",–,≥ 10 µM
"Ac-FDA[R8]DDAA[Phe(4-CONH2)]V[PyrS″]FWQ-NH2 (staple 4-11, Stapled peptide composition; same description as I-92, separate earlier-eluting HPLC peak (staple isomer)) [I-91]",–,4.72 µM
"Ac-FDA[R8]DFAAFV[PyrS]FWQ-NH2 (staple 4-11; not fully specified; printed as Ac-Phe-Asp-Ala-R8-Asp-Phe-Ala-Ala-Phe-Val-PyrS-Phe-Trp-Gln-NH2, Stapled peptide composition; same description as I-100, separate earlier-eluting HPLC peak (staple isomer)) [I-99]",–,≥ 10 µM
"Ac-FDA[R8]DFAAFV[PyrS″]FWQ-NH2 (staple 4-11, Stapled peptide composition; same description as I-99, separate later-eluting HPLC peak (staple isomer)) [I-100]",–,9.23 µM
"Ac-FDA[R8]DDAAFV[PyrS″]DWQ-NH2 (staple 4-11; not fully specified; printed as Ac-Phe-Asp-Ala-R8-Asp-Asp-Ala-Ala-Phe-Val-PyrS-Asp-Trp-Gln-NH2, Stapled peptide composition) [I-122]",–,≥ 10 µM
"Ac-FDA[R8]DDAAFV[PyrS(3)]DWQ-NH2 (staple 4-11, Stapled peptide composition) [I-121]",–,4.46 µM
"Ac-FDA[R8]DDAAFV[PyrS″][Phe(4-COOH)]WQ-NH2 (staple 4-11, Stapled peptide composition; same description as I-110, separate later-eluting HPLC peak (staple isomer)) [I-111]",–,7.64 µM
"Ac-FDA[R8]DDAA[Phe(4-CONH2)]V[PyrS″]FWQ-NH2 (staple 4-11, Stapled peptide composition; same description as I-91, separate later-eluting HPLC peak (staple isomer)) [I-92]",–,9.15 µM
"Ac-FDA[R8]DDAA[Phe(3-OMe)]V[PyrS″]FWQ-NH2 (staple 4-11; not fully specified; printed as Ac-Phe-Asp-Ala-R8-Asp-Asp-Ala-Ala-3OMeF-Val-PyrS-Phe-Trp-Gln-NH2, Stapled peptide composition) [I-104]",–,6.17 µM
"Ac-FDA[R8]DDAAFV[PyrS″][Phe(3-OMe)]WQ-NH2 (staple 4-11; not fully specified; printed as Ac-Phe-Asp-Ala-R8-Asp-Asp-Ala-Ala-Phe-Val-PyrS-3OMeF-Trp-Gln-NH2, Stapled peptide composition) [I-101]",–,≥ 10 µM
"Ac-FDA[R8]DDAA[Phe(3-OMe)]V[PyrS″]FWQ-NH2 (staple 4-11; not fully specified; printed as Ac-Phe-Asp-Ala-R8-Asp-Asp-Ala-Ala-3OMeF-Val-PyrS-Phe-Trp-Gln-NH2, Stapled peptide composition) [I-103]",–,4.95 µM
"Ac-FDA[R8]DDAA[2Nal]V[PyrS″]FWQ-NH2 (staple 4-11, Stapled peptide composition) [I-112]",–,≥ 10 µM

Binder,EC50 [1],EC50 [2]
"Ac-FDA[R8]DDAA[Phe(3-CONH2)]V[PyrS″]FWQ-NH2 (staple 4-11; not fully specified; printed as Ac-Phe-Asp-Ala-R8-Asp-Asp-Ala-Ala-3CBMF-Val-PyrS-Phe-Trp-Gln-NH2, Stapled peptide composition) [I-108]",–,≥ 10 µM
"Ac-FDA[R8]DDAAFV[PyrS″][Phe(4-COOH)]WQ-NH2 (staple 4-11; not fully specified; printed as Ac-Phe-Asp-Ala-R8-Asp-Asp-Ala-Ala-Phe-Val-PyrS-4COOHF-Trp-Gln-NH2, Stapled peptide composition) [I-110]",–,8.5 µM
"Ac-FDA[R8]DDAAFV[PyrS″][Phe(3-CONH2)]WQ-NH2 (staple 4-11, Stapled peptide composition) [I-107]",–,≥ 10 µM
"Ac-FDA[R8]DDAA[Phe(3-CONH2)]V[PyrS″]FWQ-NH2 (staple 4-11; not fully specified; printed as Ac-Phe-Asp-Ala-R8-Asp-Asp-Ala-Ala-3CBMF-Val-PyrS-Phe-Trp-Gln-NH2, Stapled peptide composition) [I-109]",–,8.82 µM
"Ac-FDA[R8]D[hPhe]AAFV[PyrS″]FWQ-NH2 (staple 4-11; not fully specified; printed as Ac-Phe-Asp-Ala-R8-Asp-hPhe-Ala-Ala-Phe-Val-PyrS-Phe-Trp-Gln-NH2, Stapled peptide composition; same description as I-97, separate later-eluting HPLC peak (staple isomer)) [I-98]",–,≥ 10 µM
"Ac-FDA[R8]D[2Nal]AAFV[PyrS″]FWQ-NH2 (staple 4-11; also: earlier-eluting HPLC peak (staple isomer), Stapled peptide composition) [I-115]",–,4.78 µM
"Ac-FDA[R8]DDAA[Ala(cPent)]V[PyrS″]FWQ-NH2 (staple 4-11, Stapled peptide composition; same description as I-96, separate earlier-eluting HPLC peak (staple isomer)) [I-95]",–,8.66 µM
"Ac-FDA[R8]D[hPhe]AAFV[PyrS″]FWQ-NH2 (staple 4-11; not fully specified; printed as Ac-Phe-Asp-Ala-R8-Asp-hPhe-Ala-Ala-Phe-Val-PyrS-Phe-Trp-Gln-NH2, Stapled peptide composition; same description as I-98, separate earlier-eluting HPLC peak (staple isomer)) [I-97]",–,7.01 µM
"Ac-FDA[R8]DDAA[3Pal]V[PyrS″]FWQ-NH2 (staple 4-11; not fully specified; printed as Ac-Phe-Asp-Ala-R8-Asp-Asp-Ala-Ala-3PyrA-Val-PyrS-Phe-Trp-Gln-NH2, Stapled peptide; also called Ac-Phe-Asp-Ala-R8-Asp-Asp-Ala-Ala-3PyrA-Val-PyrS-Phe-Trp-Gln-NH2) [I-88]",≥ 10 µM,–
"Ac-FDA[R8]DDAA[2Nal]V[PyrS″]FWQ-NH2 (staple 4-11, Stapled peptide composition) [I-113]",–,6.2 µM
"Ac-FDA[R8]DDAAFV[PyrS][Ala(cPent)]WQ-NH2 (staple 4-11, Stapled peptide composition; same description as I-93, separate later-eluting HPLC peak (staple isomer)) [I-94]",–,7.01 µM
"Ac-FDA[R8]DDAAFV[PyrS″][Phe(2-CONH2)]WQ-NH2 (staple 4-11; not fully specified; printed as Ac-Phe-Asp-Ala-R8-Asp-Asp-Ala-Ala-Phe-Val-PyrS-2CBMF-Trp-Gln-NH2, Stapled peptide composition) [I-105]",–,≥ 10 µM
"Ac-FDA[R8]DDAA[2Pal]V[PyrS]FWQ-NH2 (staple 4-11, Stapled peptide; also called Ac-Phe-Asp-Ala-R8-Asp-Asp-Ala-Ala-2PyrA-Val-PyrS-Phe-Trp-Gln-NH2) [I-86]",≥ 10 µM,–
"Ac-FDA[R8]DDAAFV[PyrS][Phe(2-CONH2)]WQ-NH2 (staple 4-11; not fully specified; printed as Ac-Phe-Asp-Ala-R8-Asp-Asp-Ala-Ala-Phe-Val-PyrS-2CBMF-Trp-Gln-NH2, Stapled peptide composition) [I-106]",–,≥ 10 µM
"Ac-FDA[R8]DDAAFV[PyrS″][Ala(cPent)]WQ-NH2 (staple 4-11, Stapled peptide composition; same description as I-94, separate earlier-eluting HPLC peak (staple isomer)) [I-93]",–,≥ 10 µM
"Ac-FDA[R8]DDAA[3Pal]V[PyrS″]FWQ-NH2 (staple 4-11; not fully specified; printed as Ac-Phe-Asp-Ala-R8-Asp-Asp-Ala-Ala-3PyrA-Val-PyrS-Phe-Trp-Gln-NH2, Stapled peptide; also called Ac-Phe-Asp-Ala-R8-Asp-Asp-Ala-Ala-3PyrA-Val-PyrS-Phe-Trp-Gln-NH2) [I-87]",≥ 10 µM,–
